From patent US7803571B2, “Method for identifying IRS inhibitors or agonists” (Sanfoi-Aventis Deutschland GmbH, priority 2003, dated 2010) come the findings set out here.

Test [1] has as its target T1, p85α (Bos taurus, UniProt P23727).
T1 construct: GST (N, cleaved yes); made in house; host or cells: Escherichia coli BL21
Briefly: Surface plasmon resonance competition assay: binding of 100 nM p85α to immobilized IRS-1 peptides in the presence of competing soluble peptide. The arrangement: species or system bovine. Particulars: SPR response at equilibrium 440 s after injection, competitor identical to immobilized peptide. The protocol: The principle of operation of the BIAcore™ biosensor (Biacore, Freiburg, Germany) has been described previously (42). To avoid the interfering dimerization of the GST part of the fusion protein, it was cleaved with thrombin during the purification. Because of the known extremely fast association rates of SH2-domains to phosphopeptides the relative affinities were assessed by competition assay (43). Therefore, a constant concentration of p85α (100 nM) was incubated in running buffer (0.01 M Hepes pH 7.4, 0.15 M NaCl, 3 mM EDTA, 0.005% Surfactant P20 (HBS-EP)) with a variable concentration of the competitor peptide (50 nM-10 μM), which was identical to that bound on the CM5 sensor chip surface. After a 1 h preincubation at room temperature the various mixtures were then injected sequentially at a flow rate of 5 μl/min at 25° C. in HBS-EP buffer. The used peptides DDGYMPMSPGV (SEQ ID NO: 7), DDGpYMPMSPGV, DDGYMPMpSPGV and DDGpYMPMpSPGV, representing the amino acids 605 to 615 of rat IRS-1, were synthesized on an Applied Biosystems model 433 peptide synthesizer. All peptides were immobilized with a concentration of 5 mg/ml in 100 mM […] (NaOH pH 8.5) at 1 μl/min by standard amine coupling procedure as described by the manufacturer. Regeneration after each binding experiment was performed by injection of 6 M guanidine hydrochloride for 2 min. The kinetic analysis of the p85α with pY608 and […] interaction has been performed using the BIAevaluation 3.1 software (Biacore, Freiburg, Germany) and GraphPad Prism 3.0 (San Diego, Calif., USA).
The inventors then determined the relative binding affinity of this reaction by monitoring the binding of 100 nM p85α to the peptides pY608 (DDGpYMPMSPGV) and pY608-pS612 (DDGpYMPMpSPGV) in the presence of competing soluble peptides (FIGS. 6D, E, F). Half-maximum inhibitory concentrations (IC50) were obtained by plotting the SPR response 440 s after injection at equilibrium versus the log peptide concentration. […] Solubilized peptides inhibited binding of p85α to the immobilized peptides at micromolar concentrations. […] In order to identify additional PKC-ζ phosphorylation sites on rIRS-1^449-664 that might promote the inhibition of insulin-stimulated tyrosine phosphorylation in the in vitro system, rIRS-1^449-664 was incubated with PKC-ζ and separated by SDS-PAGE. Phosphorylated rIRS-1^449-664 was digested with trypsin and extracted from the gel. The peptides generated by digestion were resolved by two dimensional HPLC and the content of radioactivity in the fractions was monitored by Cerenkov counting. […] To separate comigrating peptides, radioactive fractions of each peak were pooled according to the elution profile and subjected to reversed phase (RP)-HPLC (FIG. 7B). […]

The target in test [2] is T2, insulin receptor (Rattus norvegicus, UniProt P15127).
T2 construct: from tissue; host or cells: rat liver
T2 sequence (P15127 27-759 limits assumed): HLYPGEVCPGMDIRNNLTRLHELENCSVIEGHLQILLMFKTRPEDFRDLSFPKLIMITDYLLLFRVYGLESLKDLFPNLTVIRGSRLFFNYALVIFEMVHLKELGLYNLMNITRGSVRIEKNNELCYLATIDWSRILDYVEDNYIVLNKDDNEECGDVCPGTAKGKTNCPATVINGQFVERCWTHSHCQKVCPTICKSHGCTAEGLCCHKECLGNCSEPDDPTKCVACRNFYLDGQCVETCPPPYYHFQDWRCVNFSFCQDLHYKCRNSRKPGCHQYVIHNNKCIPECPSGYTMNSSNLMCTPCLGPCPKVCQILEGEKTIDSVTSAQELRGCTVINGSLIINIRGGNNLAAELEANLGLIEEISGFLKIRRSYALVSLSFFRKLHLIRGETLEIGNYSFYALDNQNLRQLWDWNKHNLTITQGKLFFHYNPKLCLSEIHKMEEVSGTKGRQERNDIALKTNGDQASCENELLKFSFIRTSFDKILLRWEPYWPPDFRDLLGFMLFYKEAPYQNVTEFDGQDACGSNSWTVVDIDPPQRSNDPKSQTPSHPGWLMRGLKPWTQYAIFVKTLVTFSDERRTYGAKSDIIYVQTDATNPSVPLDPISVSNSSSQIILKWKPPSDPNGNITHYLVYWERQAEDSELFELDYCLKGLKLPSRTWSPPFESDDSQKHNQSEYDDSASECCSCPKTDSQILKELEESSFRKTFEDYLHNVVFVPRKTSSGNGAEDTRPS
Briefly: In vitro phosphorylation assay: tyrosine phosphorylation of rIRS-1^449-664 by insulin receptor. It is filed as biochemical. The protocol: Rat liver was rapidly removed, immediately frozen in liquid nitrogen and processed as described (41). Briefly, 3.5 vol/wt of an ice-cold buffer consisting of 50 mM Hepes (pH 7.4), 1% Triton X-100 and 2× Complete Protease Inhibitors was added and the liver was homogenized using an Ultraturrax and a Potter-Elvehjem homogenizer, followed by centrifugation at 10,000×g for 10 min at 4° C. The resultant supernatant was slowly stirred at room temperature for 60 min, then again centrifuged at 100,000×g for 90 min at 4° C. The supernatant was then applied to an agarose-bound wheat germ agglutinin (WGA) column. The column was washed with 50 mM Hepes (pH 7.4), 0.1% Triton X-100, and bound glycoproteins were eluted from the WGA column with this buffer containing 0.3 M N-acetylglucoseamine.
For rIRS-1^449-664 phosphorylation by insulin receptor, […] of the WGA-purified glycoprotein fraction was preincubated for 30 min at 30° C. with 100 nM of insulin in a phosphorylation buffer containing 20 mM Hepes (pH 7.4), 1 mM DTT, 10 mM MgCl2, 100 μg/ml bovine serum albumin, 0.2 mM Na3VO4, 1.7 mM CaCl2, 0.6 mg/ml phosphatidylserine, and 0.5 μg/ml okadaic acid. Autophosphorylation was initiated by the addition of ATP at a concentration of 50 μM and continued for 10 min at 30° C. Substrate phosphorylations were initiated by addition of equal volumes of […] (1 μg) with or without pre-treatment (30 min) by the PKC isoforms in the same buffer in the presence of 50 μM ATP and was allowed to proceed for 10 min at 30° C. in a final volume of 50 μl. The reaction was terminated by the addition of 6× sample buffer (0.35 M Tris-HCl (pH 6.8), 10.28% (w/v) SDS, 36% (v/v) glycerol; 0.6 M DTT, 0.012% (w/v) bromphenol blue) and boiling for 5 min. Proteins were separated by SDS-PAGE and analyzed by immunodetection with an anti-phosphotyrosine antibody after transfer to nitrocellulose. Serine/threonine phosphorylation of rIRS-1^449-664 by different PKC isoforms was assessed by incubating 1 μg rIRS-1^449-664 with 0.5 μg PKC-rb or PKC-ζ in phosphorylation buffer for 30 min at 30° C. in the presence of 50 μM ATP plus 2 μCi [γ-^32P]ATP in a volume of 20 μl. Proteins were resolved by SDS-PAGE and the stained and dried gels were subjected to autoradiography. The extent of phosphate incorporation was determined by Cerenkov counting of excised fragments.
Proteins were separated by SDS-PAGE using 8-18% gradient gels followed by transfer to nitrocellulose in a semi-dry blotting apparatus. […] All blots were quantified using the Lumilmager software. Significance of reported differences was evaluated by using the null hypothesis and t statistics for unpaired data. […]

Test [3] addresses T1, p85α. Kind of test: GST pull down assay: interaction of rIRS-1^449-664 with p85α. Format: binding, bovine. Conditions: for p85α binding after PKC-ζ treatment, % of control: insulin-stimulated control value set as 100%, n=3. The protocol:
In vitro phosphorylated rIRS-1^449-664 was incubated with glutathione sepharose beads on a rotator for 1 h at 4° C. Pellets were washed three times with binding buffer (50 mM Tris (pH 7.4), 150 mM NaCl, 1% (v/v) Nonidet P-40, 1 mM EDTA, 1 mM NaF, 1 mM Na3VO4). Then 0.5 μg recombinant p85α was added and incubation was continued for 2 h at 4° C. After three times washing, the bound proteins were eluted with 20 μl of 2× sample buffer and separated by SDS-PAGE.
Proteins were separated by SDS-PAGE using 8-18% gradient gels followed by transfer to nitrocellulose in a semi-dry blotting apparatus. The membrane was then blocked 60 min in Tris-buffered saline containing 0.05% Tween 20 and 1% BSA or 5% non fat dry milk and probed with appropriate antibodies (anti-IRS-1, anti-pTyr, anti-p85α). After extensive washing, the membranes were incubated with horseradish peroxidase-conjugated secondary antibodies, again washed and then the protein bands were visualized by the enhanced chemiluminescence (ECL) method on a Lumilmager workstation (Boehringer, Mannheim, Germany). All blots were quantified using the Lumilmager software. Significance of reported differences was evaluated by using the null hypothesis and t statistics for unpaired data. A p value less than 0.05 was considered to be statistically significant.

Test [4] has as its target T3, IR β-subunit (Rattus norvegicus, UniProt P15127).
T3 construct: from tissue; host or cells: rat liver
Kind of test: Autophosphorylation of IR β-subunit in the presence of PKC isoforms. It is filed as biochemical. Particulars: autoactivated receptor incubated 10 min at 30° C. with PKC. Here is the method:
(A) Autophosphorylation of IR was conducted as outlined in FIG. 2. Either PKC-rb or PKC-ζ was added after 10 min of autophosphorylation and incubation was continued for another 10 min. Tyrosine phosphorylation of IR β-subunit was then analyzed by immunoblotting. (B) Quantification of blots was obtained using Lumi Imager software. Data are mean values±SEM (n=4-6).
For rIRS-1^449-664 phosphorylation by insulin receptor, […] of the WGA-purified glycoprotein fraction was preincubated for 30 min at 30° C. with 100 nM of insulin in a phosphorylation buffer containing 20 mM Hepes (pH 7.4), 1 mM DTT, 10 mM MgCl2, 100 μg/ml bovine serum albumin, 0.2 mM Na3VO4, 1.7 mM CaCl2, 0.6 mg/ml phosphatidylserine, and 0.5 μg/ml okadaic acid. Autophosphorylation was initiated by the addition of ATP at a concentration of 50 μM and continued for 10 min at 30° C. […] Proteins were separated by SDS-PAGE and analyzed by immunodetection with an anti-phosphotyrosine antibody after transfer to nitrocellulose. Serine/threonine phosphorylation of rIRS-1^449-664 by different PKC isoforms was assessed by incubating 1 μg rIRS-1^449-664 with 0.5 μg PKC-rb or PKC-ζ in phosphorylation buffer for 30 min at 30° C. in the presence of 50 μM ATP plus 2 μCi [γ-^32P]ATP in a volume of 20 μl. […] The extent of phosphate incorporation was determined by Cerenkov counting of excised fragments.

The mark [5] stands for this setting: read-out: IC50, inhibition of p85α binding by soluble peptide, two site competition fit, first value.
Where [6] appears, read: read-out: IC50, inhibition of p85α binding by soluble peptide, two site competition fit, second value.
[7] abbreviates: rIRS-1^449-664 preincubated with 0.5 μg PKC for 30 min, insulin-stimulated value set as 100%.

Changes are numbered by the printed parent chain. In names and notes the source's numbering stands. Like-named read-outs stand apart in the source and are kept apart here. Square brackets hold non-standard residues; d marks the D form. Peptide text beside a SMILES is read from it. pY = N[C@@H](Cc1ccc(OP(=O)(O)O)cc1)C(=O)O; pS = N[C@@H](COP(=O)(O)O)C(=O)O

T1 sequence (P23727 whole entry): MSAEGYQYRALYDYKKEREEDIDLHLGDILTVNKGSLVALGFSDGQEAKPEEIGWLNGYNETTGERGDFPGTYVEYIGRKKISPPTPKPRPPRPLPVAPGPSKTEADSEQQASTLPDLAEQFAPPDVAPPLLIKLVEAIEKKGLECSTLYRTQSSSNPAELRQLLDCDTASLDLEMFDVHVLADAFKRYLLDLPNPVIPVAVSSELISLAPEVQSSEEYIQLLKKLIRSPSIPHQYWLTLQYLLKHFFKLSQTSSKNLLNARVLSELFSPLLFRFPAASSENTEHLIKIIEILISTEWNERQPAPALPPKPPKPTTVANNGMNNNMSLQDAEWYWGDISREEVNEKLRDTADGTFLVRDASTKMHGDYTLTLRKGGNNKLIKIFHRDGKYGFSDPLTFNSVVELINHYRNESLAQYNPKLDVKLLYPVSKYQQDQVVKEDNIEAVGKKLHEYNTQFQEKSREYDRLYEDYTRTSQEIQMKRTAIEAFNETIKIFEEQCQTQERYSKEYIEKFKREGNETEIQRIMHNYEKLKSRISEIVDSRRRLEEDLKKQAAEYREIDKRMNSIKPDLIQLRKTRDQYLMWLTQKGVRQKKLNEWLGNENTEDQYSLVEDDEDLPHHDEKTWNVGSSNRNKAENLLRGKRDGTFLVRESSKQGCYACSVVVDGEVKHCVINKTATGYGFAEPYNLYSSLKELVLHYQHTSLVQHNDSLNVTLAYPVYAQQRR
T3 sequence (P15127 27-759 limits assumed): as the sequence (P15127 27-759 limits assumed) above

For orientation: IC50 means the concentration that inhibits the measured activity by half. In the case of `CSCC[C@H](NC(=O)[C@@H]1CCCN1C(=O)[C@H](CCSC)NC(=O)[C@H](Cc1ccc(OP(=O)(O)O)cc1)NC(=O)CNC(=O)[C@H](CC(=O)O)NC(=O)[C@@H](N)CC(=O)O)C(=O)N[C@@H](COP(=O)(O)O)C(=O)N1CCC[C@H]1C(=O)NCC(=O)N[C@H](C(=O)O)C(C)C` [pY608-pS612, DDGpYMPMpSPGV] (H-DDG[pY]MPM[pS]PGV-OH), the values for the IC50 in test [1] (setting [5]) and in test [1] (setting [6]) were 150 nM and 2880 nM, respectively.
Take `CSCC[C@H](NC(=O)[C@@H]1CCCN1C(=O)[C@H](CCSC)NC(=O)[C@H](Cc1ccc(OP(=O)(O)O)cc1)NC(=O)CNC(=O)[C@H](CC(=O)O)NC(=O)[C@@H](N)CC(=O)O)C(=O)N[C@@H](CO)C(=O)N1CCC[C@H]1C(=O)NCC(=O)N[C@H](C(=O)O)C(C)C` [pY608, DDGpYMPMSPGV] (H-DDG[pY]MPMSPGV-OH; N-terminus and C-terminus assumed): the IC50 was found to be 260 nM in test [1] (setting [5]) and 16600 nM in test [1] (setting [6]).

B1: rIRS-1^449-664: glutathione S-transferase (GST) fusion protein containing the amino acids 449-664 of rat IRS-1 (SEQ ID NO: 17) (protein)
chain: PPARGEEELSNYICMGGKGASTLTAPNGHYILSRGGNGHRYIPGATMGTSPALTGDEAAGAADLDNRFRKRTHSAGTSPTISHQKTPSQSSVVSIEEYTEMMPAAYPPGGGSGGRLPGYRHSAFVPTHSYPEEGLEMHHLERRGGHHRPDSSNLHTDDGYMPMSPGVAPVPSNRKGNGDYMPMSPKSVSAPQQIINPIRRHPQRVDPNGYMMMSPS
modifications: left off: a dimerising Fc or GST
B1: the “Insulin-stimulated tyrosine phosphorylation, stimulation over basal” value in test [2] (WGA-purified insulin receptor, 100 nM insulin, n=10) was determined as 8.8±1.1 fold. Moreover, the “Reduction of tyrosine phosphorylation by IR after PKC-ζ pretreatment” value in test [2] (wild type and mutant fusion proteins as substrate, relative to insulin-stimulated control) is reported as 30-40%. Further, the “Interaction of p85α with the tyrosine phosphorylated fusion protein” value in test [3] (after insulin-stimulated tyrosine phosphorylation by IR) is on record as “significant increase”.

B2: S612A: serine 612 to alanine mutant of rIRS-1^449-664 GST fusion protein (protein, UniProt P35570 449-664, looked up, variant S612A)
chain: B1 chain with S164A
modifications: GST fusion
notes: serine 612 to alanine mutant of rIRS-1^449-664 GST fusion protein
As to B2, in test [3], the “p85α binding after PKC-ζ treatment, % of control” value is 28±3 % of control.

B3: S570A: serine 570 to alanine mutant of rIRS-1^449-664 GST fusion protein (protein, UniProt P35570 449-664, looked up, variant S570A)
chain: B1 chain with S122A
modifications: GST fusion
notes: serine 570 to alanine mutant of rIRS-1^449-664 GST fusion protein
Turning to B3, in test [3], the “p85α binding after PKC-ζ treatment, % of control” value was 43±4 % of control.

B4: PKC-ζ: recombinant human protein kinase C-ζ, obtained from Calbiochem (protein)
chain: MPSRTGPKMEGSGGRVRLKAHYGGDIFITSVDAATTFEELCEEVRDMCRLHQQHPLTLKWVDSEGDPCTVSSQMELEEAFRLARQCRDEGLIIHVFPSTPEQPGLPCPGEDKSIYRRGARRWRKLYRANGHLFQAKRFNRRAYCGQCSERIWGLARQGYRCINCKLLVHKRCHGLVPLTCRKHMDSVMPSQEPPVDDKNEDADLPSEETDGIAYISSSRKHDSIKDDSEDLKPVIDGMDGIKISQGLGLQDFDLIRVIGRGSYAKVLLVRLKKNDQIYAMKVVKKELVHDDEDIDWVQTEKHVFEQASSNPFLVGLHSCFQTTSRLFLVIEYVNGGDLMFHMQRQRKLPEEHARFYAAEICIALNFLHERGIIYRDLKLDNVLLDADGHIKLTDYGMCKEGLGPGDTTSTFCGTPNYIAPEILRGEEYGFSVDWWALGVLMFEMMAGRSPFDIITDNPDMNTEDYLFQVILEKPIRIPRFLSVKASHVLKGFLNKDPKERLGCRPQTGFSDIKSHAFFRSIDWDLLEKKQALPPFQPQITDDYGLDNFDTQFTSEPVQLTPDDEDAIKRIDQSEFEGFEYINPLLLSTEESV
Consider B4, for which the “Reduction of insulin-stimulated tyrosine phosphorylation of rIRS-1^449-664 by PKC pretreatment” value in test [2] (setting [7]) was 46±5%. In test [4], the “Alteration of IR autophosphorylation compared to controls” value is listed as “No significant alteration”. For the same molecule, the “Inhibition of p85α association with rIRS-1^449-664 by PKC pretreatment” value in test [3] (setting [7]) was found to be 81±1%.
